Numbering of substitutions follows the chain as printed. Where two headings read alike, the source gives them in different places.

For orientation: EC50 (read off the curve) means the concentration giving half of the maximal effect.

The target in test [1] is T1, human CD30 (human, UniProt P28908 19-595).
T1 sequence: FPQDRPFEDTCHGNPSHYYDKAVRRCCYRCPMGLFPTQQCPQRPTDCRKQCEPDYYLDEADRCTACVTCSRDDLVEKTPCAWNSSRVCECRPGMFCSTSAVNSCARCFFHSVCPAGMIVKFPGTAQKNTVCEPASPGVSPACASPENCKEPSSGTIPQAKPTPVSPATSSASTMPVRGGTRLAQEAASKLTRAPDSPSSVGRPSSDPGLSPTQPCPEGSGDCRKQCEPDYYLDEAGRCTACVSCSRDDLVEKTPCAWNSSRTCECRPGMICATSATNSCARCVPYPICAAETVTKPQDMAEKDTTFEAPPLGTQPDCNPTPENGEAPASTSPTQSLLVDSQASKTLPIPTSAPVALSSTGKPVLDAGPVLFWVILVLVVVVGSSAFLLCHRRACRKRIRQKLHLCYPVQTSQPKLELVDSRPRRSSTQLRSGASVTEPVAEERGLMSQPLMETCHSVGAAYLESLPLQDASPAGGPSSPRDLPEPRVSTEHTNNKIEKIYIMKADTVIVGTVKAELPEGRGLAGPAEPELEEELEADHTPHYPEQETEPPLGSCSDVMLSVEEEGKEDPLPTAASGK
The test is described as follows: cell-based or functional assay.

Test [2] deals with T2, rhesus monkey (Macaca mulatta) CD30 (rhesus monkey, UniProt P28908 19-595 (human entry)).
T2 construct: Full-length construct expressed in Expi293F cells; also called mmCD30
T2 chain: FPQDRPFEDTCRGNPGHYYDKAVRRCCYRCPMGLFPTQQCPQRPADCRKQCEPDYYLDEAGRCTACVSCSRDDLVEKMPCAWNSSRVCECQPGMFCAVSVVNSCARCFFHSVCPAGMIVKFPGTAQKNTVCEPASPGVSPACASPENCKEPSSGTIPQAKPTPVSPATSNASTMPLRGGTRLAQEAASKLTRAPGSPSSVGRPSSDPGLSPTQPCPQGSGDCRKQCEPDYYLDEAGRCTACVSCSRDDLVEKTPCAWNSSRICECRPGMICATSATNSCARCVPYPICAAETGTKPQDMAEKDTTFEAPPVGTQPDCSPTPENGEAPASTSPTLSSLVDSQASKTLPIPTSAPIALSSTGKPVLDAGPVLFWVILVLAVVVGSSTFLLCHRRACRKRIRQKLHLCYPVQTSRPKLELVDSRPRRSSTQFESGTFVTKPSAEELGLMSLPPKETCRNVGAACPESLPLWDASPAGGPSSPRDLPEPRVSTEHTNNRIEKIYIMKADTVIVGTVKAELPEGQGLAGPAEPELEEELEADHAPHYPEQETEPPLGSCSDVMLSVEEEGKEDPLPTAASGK
The test is described as follows: flow cytometry on Expi293F cells transfected with rhesus monkey CD30. The method, then: (§1) Cells (3×10⁴ cells/well) were incubated in polystyrene 96-well round-bottom plates (Thermo Scientific, cat. no. 163320) with serial dilutions of antibodies (ranging from 0.0002 to 50 μg/mL in 4-fold dilution steps) in 50 μL staining buffer at 4° C. for 30 min. Experiments were performed in technical duplicate. After washing twice in staining buffer, cells were incubated in 50 μL secondary antibody at 4° C. for 30 min. […] Cells were washed twice in staining buffer, resuspended in 30 μL staining buffer containing 0.4% EDTA and the ToPro-3 viability marker (Invitrogen, cat. no. T3605) diluted 1:10,000. Cells were analyzed on an iQue Screener (Intellicyt Corporation, USA). Binding curves were analyzed using non-linear regression (sigmoidal dose-response with variable slope) using GraphPad Prism V9.0.0 software (GraphPad Software, San Diego, Calif., USA).

Test [3] addresses T1, human CD30. Nature of the test: flow cytometry on Expi293F cells transfected with human CD30. As for the experimental part:
as §1
On the technique in general: In flow cytometry, cells or beads pass a laser one at a time.

Test [4] deals with T2, rhesus monkey (Macaca mulatta) CD30. Nature of the test: flow cytometry on Expi293F cells transfected with rhesus monkey CD30.

B1: bsG1-huCD3-FEAL×CD30-T408-FEAR (bispecific antibody, human IgG1, kappa, lambda)
heavy 1: not shown
light 1: not shown
heavy 2: QVQLQQPGAELVRPGASVKLSCKASGYTFTSYWINWVKQRPGQGLEWIGNIYPSDSYSNYNQKFKDKATLTVDKSSSTAYMQLSSPTSEDSAVYYCTLGSYWGQGTLVTVSAASTKGPSVFPLAPSSKSTSGGTAALGCLVKDYFPEPVTVSWNSGALTSGVHTFPAVLQSSGLYSLSSVVTVPSSSLGTQTYICNVNHKPSNTKVDKRVEPKSCDKTHTCPPCPAPEFEGGPSVFLFPPKPKDTLMISRTPEVTCVVVAVSHEDPEVKFNWYVDGVEVHNAKTKPREEQYNSTYRVVSVLTVLHQDWLNGKEYKCKVSNKALPAPIEKTISKAKGQPREPQVYTLPPSREEMTKNQVSLTCLVKGFYPSDIAVEWESNGQPENNYKTTPPVLDSDGSFFLYSRLTVDKSRWQQGNVFSCSVMHEALHNHYTQKSLSLSPG
light 2: DVVMTQTPLTLSVTIGQPASISCKSSQSLSDSDGKTYLNWLLQRPGQSPKRLIYLVSKLDSGVPDRFTGSGSGTDFTLKISRVEAEDLGVYYCWQGAHFPRTFGGGTKLEIKRTVAAPSVFIFPPSDEQLKSGTASVVCLLNNFYPREAKVQWKVDNALQSGNSQESVTEQDSKDSTYSLSSTLTLSKADYEKHKVYACEVTHQGLSSPVTKSFNRGEC
notes: Bispecific IgG1 by Fab-arm exchange of the two parental antibodies; also called bsIgG1-huCD3-FEAL×CD30-T408-FEAR; BisIgG1-huCD3-FEAL×CD30-T408-FEAR
As to B1, in the test with human CD30 [1], the “cytotoxicity IC50 (µg/mL) average, Karpas-299 cells” value (“cytotoxicity IC50 (µg/mL) average” for short) stood at 0.226 µg/mL and the “cytotoxicity maximum lysis (%) average, Karpas-299 cells” value (“cytotoxicity maximum lysis (%) average” for short) came out at 41.3%. In test [2], the binding result was “binds”.

B2: bsG1-huCD3-FEAL×CD30-T215-FEAR (bispecific antibody, human IgG1, kappa, lambda)
heavy 1: not shown
light 1: not shown
heavy 2: not shown
light 2: DIVMTQSQKFMSTSVGDRVSVTCKASQNVFTNVAWYQQKLGQSPKPLIYSASYRYSGVPDRFTGSGSGTDFTLTISDVQSEDLAEYFCQQYNSYPVTFGAGTKLELKRTVAAPSVFIFPPSDEQLKSGTASVVCLLNNFYPREAKVQWKVDNALQSGNSQESVTEQDSKDSTYSLSSTLTLSKADYEKHKVYACEVTHQGLSSPVTKSFNRGEC
notes: Bispecific IgG1 by Fab-arm exchange of the two parental antibodies; also called bsIgG1-huCD3-FEAL×CD30-T215-FEAR
Turning to B2, in the test with human CD30 [1], the “cytotoxicity IC50 (µg/mL) average” value was 0.077 µg/mL and the “cytotoxicity maximum lysis (%) average” value was determined as 42.8%. For the same molecule, the binding result in test [2] was “binds”.

B3: bsG1-huCD3-FEAL×CD30-hAC10-FEAR (bispecific antibody, human IgG1, kappa, lambda)
heavy 1: not shown
light 1: not shown
heavy 2: QVQLVQSGAEVKKPGASVKVSCKASGYTFTDYYITWVRQAPGQGLEWMGWIYPGSGNTKYNEKFKGRVTMTRDTSISTAYMELSRLRSDDTAVYYCANYGNYWFAYWGQGTLVTVSSASTKGPSVFPLAPSSKSTSGGTAALGCLVKDYFPEPVTVSWNSGALTSGVHTFPAVLQSSGLYSLSSVVTVPSSSLGTQTYICNVNHKPSNTKVDKRVEPKSCDKTHTCPPCPAPEFEGGPSVFLFPPKPKDTLMISRTPEVTCVVVAVSHEDPEVKFNWYVDGVEVHNAKTKPREEQYNSTYRVVSVLTVLHQDWLNGKEYKCKVSNKALPAPIEKTISKAKGQPREPQVYTLPPSREEMTKNQVSLTCLVKGFYPSDIAVEWESNGQPENNYKTTPPVLDSDGSFFLYSRLTVDKSRWQQGNVFSCSVMHEALHNHYTQKSLSLSPG
light 2: not shown
notes: Bispecific IgG1 by Fab-arm exchange of the two parental antibodies
As to B3, in the test with human CD30 [1], the “cytotoxicity IC50 (µg/mL) average” value was 0.032 µg/mL and the “cytotoxicity maximum lysis (%) average” value was determined as 37.8%. Also, the “EC50 (read off the curve)” value in the test with human CD30 [3] is about 0.06 µg/mL. Besides, the binding result in test [4] is “binds”.

B4: IgG1-CD30-T215-FEAR (antibody, V domains shown)
VH: QVTLKESGPGILQPSQTLSLTCSFSGFSLSVSGMGVSWIRQPSGKGLEWLAHIHWDDDRRSNPSLRSRLTISKDTSNNQVFLKITSVDTADTATYYCARRPDLYGNYFFFDFWGQGTTLTVSS
VL: DIVMTQSQKFMSTSVGDRVSVTCKASQNVFTNVAWYQQKLGQSPKPLIYSASYRYSGVPDRFTGSGSGTDFTLTISDVQSEDLAEYFCQQYNSYPVTFGAGTKLELKR
notes: Monospecific, bivalent parental antibody
For the molecule B4, in test [2], the binding result is listed as “binds”.

B5: bsG1-huCD3-FEAL×CD30-HRS-3-FEAR (bispecific antibody, human IgG1, kappa, lambda)
heavy 1: not shown
light 1: not shown
heavy 2: QVQLQQSGAELARPGASVKMSCKASGYTFTTYTIHWVRQRPGHDLEWIGYINPSSGYSDYNQNFKGKTTLTADKSSNTAYMQLNSLTSEDSAVYYCARRADYGNYEYTWFAYWGQGTTVTVSSASTKGPSVFPLAPSSKSTSGGTAALGCLVKDYFPEPVTVSWNSGALTSGVHTFPAVLQSSGLYSLSSVVTVPSSSLGTQTYICNVNHKPSNTKVDKRVEPKSCDKTHTCPPCPAPEFEGGPSVFLFPPKPKDTLMISRTPEVTCVVVAVSHEDPEVKFNWYVDGVEVHNAKTKPREEQYNSTYRVVSVLTVLHQDWLNGKEYKCKVSNKALPAPIEKTISKAKGQPREPQVYTLPPSREEMTKNQVSLTCLVKGFYPSDIAVEWESNGQPENNYKTTPPVLDSDGSFFLYSRLTVDKSRWQQGNVFSCSVMHEALHNHYTQKSLSLSPG
light 2: DIVMTQSPKFMSTSVGDRVTVTCKASQNVGTNVAWFQQKPGQSPKVLIYSASYRYSGVPDRFTGSGSGTDFTLTISNVQSEDLAEYFCQQYHTYPLTFGGGTKLEINRTVAAPSVFIFPPSDEQLKSGTASVVCLLNNFYPREAKVQWKVDNALQSGNSQESVTEQDSKDSTYSLSSTLTLSKADYEKHKVYACEVTHQGLSSPVTKSFNRGEC
With B5, in the test with human CD30 [1], the “cytotoxicity IC50 (µg/mL) average” value stood at 0.068 µg/mL and the “cytotoxicity maximum lysis (%) average” value turned out to be 47.5%.

B6: bsG1-huCD3-FEAL×CD30-T105-FEAR (bispecific antibody, human IgG1, kappa, lambda)
heavy 1: not shown
light 1: not shown
heavy 2: not shown
light 2: B2 light 2 with F30N, L40P, K45E, P46A, D77N, V96L, A100S, L106I
notes: Bispecific IgG1 by Fab-arm exchange of the two parental antibodies; also called bsIgG1-huCD3-FEAL×CD30-T105-FEAR
For B6, in the test with human CD30 [1], the “cytotoxicity IC50 (µg/mL) average” value was found to be 0.042 µg/mL and the “cytotoxicity maximum lysis (%) average” value amounted to 52.6%. The “EC50 (read off the curve)” value with human CD30 [3] was about 0.2 µg/mL.

B7: bsG1-huCD3-FEAL×CD30-MDX060-FEAR (bispecific antibody, human IgG1, kappa, lambda)
heavy 1: not shown
light 1: not shown
heavy 2: QVQLQQWGAGLLKPSETLSLTCAVYGGSFSAYYWSWIRQPPGKGLEWIGDINHGGGTNYNPSLKSRVTISVDTSKNQFSLKLNSVTAADTAVYYCASLTAYWGQGSLVTVSSASTKGPSVFPLAPSSKSTSGGTAALGCLVKDYFPEPVTVSWNSGALTSGVHTFPAVLQSSGLYSLSSVVTVPSSSLGTQTYICNVNHKPSNTKVDKRVEPKSCDKTHTCPPCPAPEFEGGPSVFLFPPKPKDTLMISRTPEVTCVVVAVSHEDPEVKFNWYVDGVEVHNAKTKPREEQYNSTYRVVSVLTVLHQDWLNGKEYKCKVSNKALPAPIEKTISKAKGQPREPQVYTLPPSREEMTKNQVSLTCLVKGFYPSDIAVEWESNGQPENNYKTTPPVLDSDGSFFLYSRLTVDKSRWQQGNVFSCSVMHEALHNHYTQKSLSLSPG
light 2: DIQMTQSPTSLSASVGDRVTITCRASQGISSWLTWYQQKPEKAPKSLIYAASSLQSGVPSRFSGSGSGTDFTLTISSLQPEDFATYYCQQYDSYPITFGQGTRLEIKRTVAAPSVFIFPPSDEQLKSGTASVVCLLNNFYPREAKVQWKVDNALQSGNSQESVTEQDSKDSTYSLSSTLTLSKADYEKHKVYACEVTHQGLSSPVTKSFNRGEC
notes: also called bsG1-huCD3xCD30-MDX060
With B7, in the test with human CD30 [1], the “cytotoxicity IC50 (µg/mL) average” value was found to be 0.033 µg/mL and the “cytotoxicity maximum lysis (%) average” value is 53.7%. Also, the “EC50 (read off the curve)” value in the test with human CD30 [3] was about 0.1 µg/mL.

Values taken from patent US20230132049A1 (Genmab, published 2023).
